Measured values from patent US20040171074A1, “Structures of substrate binding pockets of SCF complexes” (MOUNT SINAI HOSPITAL, priority 2002, published 2004).
Entries after “also recorded” stand apart in the source; their conditions may differ.

Assays:
phospho-Sic1 = assay: P-Sic1 pull down: in vitro capture of phospho-Sic1 on immobilized wild type or mutant Cdc4-GST-Skp1, anti-Sic1 immunoblot; format: binding, yeast; conditions: Sic1 phosphorylated with Cln2-Cdc28, captured onto GST-Skp1/Cdc4 resin, anti-Sic1 detection
Method: (§1) Mutational analysis of the CPD binding surface. Mutants were tested in vitro by ability to bind phosphorylated Sic1 and then captured onto GST-Skp1/Cdc4 resin and detected with anti-sic1 antibody. Mutants were tested in vivo by ability to degrade GAL1-SIC1 or various phosphorylation mutants. Sites are as follows: 3=Thr 33, Thr 45, Ser 76; 4=Thr 5, Thr 33, Thr 45, Ser 76; 5=Thr 2, Thr 5, Thr 33, Thr 45, Ser 76; 6=Thr 2, Thr 5, Thr 33, Thr 45, Ser 69, Ser 76; 7=Thr 2, Thr 5, Thr 33, Thr 45, Ser 69, Ser 76, Ser 80. GAL1-SIC1 plasmids were transformed into a cdc4Δ strain containing a copy of CDC4 on a TRP1 ARS CEN plasmid. Strains were incubated for 2 days at 30° C.
Bacterially expressed His6-Sic1 was phosphorylated with Cln2-Cdc28 kinase purified from baculovirus infected Sf9 cells as described before (Nature paper). 1 ug of WT or mutant Cdc4-GST-Skp1, immoblized on GSH-Sepharose resin, was incubated with 0.5 ug phospho-Sic1 at 4 C for 1 h and washed 4 times. Captured complexes were resolved on SDS-PAGE and Sic1 visualized by anti-Sic1 Western blotting and ECL. For IEF-2D analysis, several Sic1 phosphorylation reactions were carried out for different time periods to obtain a spectrum of Sic1 that were phosphorylated at different numbers of its nine CDK sites. This pool of phospho-Sic1 (2.5 ug) was incubated with 5 μg of WT or mutant Cdc4-GST-Skp1 as described above. Different phosphorylation states of Sic1 were separated by denaturing isoelectric focusing (IEF)-2D gel electrophoresis and visualized by anti-Sic1 Western blotting and ECL. IEF was performed using pH 3-10NL Immobiline gel strips and IPGphore IEF system (Amersham pharmacia).
(§2) Cdc4 functional assays. CDC4 mutant alleles were assessed for complementation of a cdc4A strain in a plasmid shuffle assay (Nash et al., 2001). Sensitivity to SIC1 dosage was determined by transformation with pMT837 (GAL1-SIC1) or pMT767 (GAL1-SIC1^T33V) and plating on glucose medium or galactose medium. For in vitro capture of phospho-Sic1 by Cdc4, 0.5 μg of bacterially-expressed ^HIS6Sic1 was phosphorylated with immobilized Cln2-Cdc28 kinase from baculovirus-infected Sf9 cells and then incubated with 1 μg of immobilized wild type or mutant Cdc4^263-744-GST-Skp1, at 4° C. for 1 hr, washed 4 times and visualized by anti-Sic1 immunoblot. For isoelectric focusing (IEF)-2D gel analyses, an evenly distributed pool of phospho-Sic1 isoforms was generated by combining different time points in a Sic1 phosphorylation reaction. 2.5 μg of the phospho-Sic1 pool was bound to 5 μg of immobilized wild type or mutant Cdc4^1-744-GST-Skp1. Captured isoforms were separated by denaturing IEF-2D gel electrophoresis using pH3-10NL Immobiline gel strips (Amersham) and visualized by anti-Sic1 immunoblot. Alternatively, the pool of phospho-Sic1 isoforms was incubated in solution with a ubiquitination reaction mix containing ATP, ubiquitin, yeast E1, Cdc34 and either wild type or mutant SCF^Cdc4 complex, composed of a 1:1 ratio of bacterial Cdc4-GST-Skp1 and insect cell-produced Cdc53-Rbx1, at 30° C. for 1 h as previously described (Nash et al., 2001).

cdc4Δ strain = assay: plasmid shuffle assay: complementation of a cdc4Δ strain by CDC4 alleles; format: cell-based, yeast; conditions: viability of cdc4Δ strain on 5-FOA, 2 days at 30° C.
Method: (§3) All mutants on a TRP1 ARS CEN plasmid were transformed into a cdc4Δ strain (MT 1259) containing a wildtype copy of CDC4 on a URA3 ARS CEN plasmid. Cells were plated on either Trp^−Ura^− or 5-FOA medium for 2 days at 30° C. Viable cells on 5-FOA were grown in Trp medium and transformed with either wild type GAL1-SIC1, GAL1-SIC T45A, or GAL1-SIC T33V on a LEU2 ARS CEN pasmid. Cells were then plated on Leu- Trp-plates containing either glucose or galactose and incubated for 2 days at 30° C.
as §2

Skp1 = target: T1, Skp1 (Saccharomyces cerevisiae, UniProt P52286); assay: Skp1 binding in vitro (pull down); design: species or system yeast
T1 construct: GST (N); made in house; host or cells: bacteria
T1 sequence (P52286 2-194 limits assumed): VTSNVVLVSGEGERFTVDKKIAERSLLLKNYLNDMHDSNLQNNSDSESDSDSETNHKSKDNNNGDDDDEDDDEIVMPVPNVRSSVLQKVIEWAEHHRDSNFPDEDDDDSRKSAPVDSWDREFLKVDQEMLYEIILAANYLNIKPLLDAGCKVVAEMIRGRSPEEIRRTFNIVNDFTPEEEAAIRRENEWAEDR
Text: In order to probe the functional importance of amino acid residues on the highly conserved peptide binding surface, a panel of Cdc4 mutants (both single and double mutant) were generated and tested each for its ability to bind phospho Sic1 and Skp1 in vitro using a pull down assay and for its ability to substitute for wt-cdc4 in vivo using a cell viability assay. Of 12 single site mutants tested, only Arg 467. Arg485Ala Arg534Ala, and Trp 426 abolished both cell viability in vivo and phosphoSic1 binding in vitro. Together, these residues compose most of the interaction surface with the pThr, Pro CPD core. […] Presumably in the context of the full SCF complex in vivo this mutant is sufficiently well behaved to bind phospho Sic1.

[1] = system: cdc4Δ strain overexpressing SIC1; assay: sensitivity to SIC1 dosage: GAL1-SIC1 overexpression in strains bearing CDC4 alleles; format: cell-based, yeast
Method: as §1, §3
Since the cell viability assay nay be masking subtle functional roles for the conserved Cdc4 residues, function was assayed in vivo under more stringent conditions in which Sic1 wt or the stabilized mutants, Sic1 (T33V) or Sic1(T45A) are over-expressed under a galactose promoter. This should amplify defects in cdc4 function. Under these conditions, Trp 717, Tyr 548 and the double mutant K404D/R443D are lethal showing that these residues are in fact important for functions
as §2

Molecule	P-Sic1 pull down (phospho-Sic1)	P-Sic1 pull down (phospho-Sic1; listed as Arg 467)	P-Sic1 pull down (phospho-Sic1; listed as Arg467Ala)	shuffle (cdc4Δ strain)	shuffle (cdc4Δ strain; listed as Arg 467)	shuffle (cdc4Δ strain; listed as Arg467Ala)	Skp1 binding (Skp1)	gal Sic1T33V ([1]; GAL1-SIC1 T33V (partially stabilized Sic1), galactose, 2 days at 30° C.)	gal Sic1T45A ([1]; GAL1-SIC1 T45A, galactose, 2 days at 30° C.)	gal Sic1 wt ([1]; GAL1-SIC1 wild type, galactose, 2 days at 30° C.)	viability / sensitivity to increased SIC1 dosage ([1]; Sic1 wt or stabilized Sic1(T33V) or Sic1(T45A) over-expressed under a galactose promoter)	P-Sic1 pull down (phospho-Sic1; listed as Arg443Asp)	shuffle (cdc4Δ strain; listed as Arg443Asp)	P-Sic1 pull down (phospho-Sic1; listed as Arg485Ala)	shuffle (cdc4Δ strain; listed as Arg485Ala)
R467A: mutant cdc4 polypeptide (protein) MGSFPLAEFPLRDIPVPYSYRVSGGIASSGSVTALVTAAGTHRNSSTAKTVETEDGEEDIDEYQRKRAAGSGESTPERSDFKRVKHDNHKTLHPVNLQNTGAASVDNDGLHNLTDISNDAEKLLMSVDDGSAAPSTLSVNMGVASHNVAAPTTVNAATITGSDVSNNVNSATINNPMEEGALPLSPTASSPGTTTPLAKTTKTINNNNNIADLIESKDSIISPEYLSDEIFSAINNNLPHAYFKNLLFRLVANMDRSELSDLGTLIKDNLKRDLITSLPFEISLKIFNYLQFEDIINSLGVSQNWNKIIRKSTSLWKKLLISENFVSPKGFNSLNLKLSQKYPKLSQQDRLRLSFLENIFILKNWYNPKFVPQRTTLRGHMTSVITCLQFEDNYVITGADDKMIRVYDSINKKFLLQLSGHDGGVWALKYAHGGILVSGSTDRTVRVWDIKKGCCTHVFKGHNSTVACLDIVEYKNIKYIVTGSRDNTLHVWKLPKESSVPDHGEEHDYPLVFHTPEENPYFVGVLRGHMASVRTVSGHGNIVVSGSYDNTLIVWDVAQMKCLYILSGHTDRIYSTIYDHERKRCISASMDTTIRIWDLENIWNNGECSYATNSASPCAKILGAMYTLQGHTALVGLLRLSDKFLVSAAADGSIRGWDANDYSRKFSYHHTNLSAITTFYVSDNILVSGSENQFNIYNLRSGKLVHANILKDADQIWSVNFKGKTLVAAVEKDGQSFLEILDFSKASKINYVSNPVNSSSSSLESISTSLGLTRTTIIP	no bind	abolished	unable to bind	dead	abolished	unable	fully competent	–	–	–	–	–	–	–	–
R443D: mutant cdc4 polypeptide (protein) MGSFPLAEFPLRDIPVPYSYRVSGGIASSGSVTALVTAAGTHRNSSTAKTVETEDGEEDIDEYQRKRAAGSGESTPERSDFKRVKHDNHKTLHPVNLQNTGAASVDNDGLHNLTDISNDAEKLLMSVDDGSAAPSTLSVNMGVASHNVAAPTTVNAATITGSDVSNNVNSATINNPMEEGALPLSPTASSPGTTTPLAKTTKTINNNNNIADLIESKDSIISPEYLSDEIFSAINNNLPHAYFKNLLFRLVANMDRSELSDLGTLIKDNLKRDLITSLPFEISLKIFNYLQFEDIINSLGVSQNWNKIIRKSTSLWKKLLISENFVSPKGFNSLNLKLSQKYPKLSQQDRLRLSFLENIFILKNWYNPKFVPQRTTLRGHMTSVITCLQFEDNYVITGADDKMIRVYDSINKKFLLQLSGHDGGVWALKYAHGGILVSGSTDDTVRVWDIKKGCCTHVFKGHNSTVRCLDIVEYKNIKYIVTGSRDNTLHVWKLPKESSVPDHGEEHDYPLVFHTPEENPYFVGVLRGHMASVRTVSGHGNIVVSGSYDNTLIVWDVAQMKCLYILSGHTDRIYSTIYDHERKRCISASMDTTIRIWDLENIWNNGECSYATNSASPCAKILGAMYTLQGHTALVGLLRLSDKFLVSAAADGSIRGWDANDYSRKFSYHHTNLSAITTFYVSDNILVSGSENQFNIYNLRSGKLVHANILKDADQIWSVNFKGKTLVAAVEKDGQSFLEILDFSKASKINYVSNPVNSSSSSLESISTSLGLTRTTIIP	bind	–	–	alive	–	–	–	alive	dead	alive	indistinguishable from wild type	indistinguishable from wild type	indistinguishable from wild type	–	–
R485A: mutant cdc4 polypeptide (protein) MGSFPLAEFPLRDIPVPYSYRVSGGIASSGSVTALVTAAGTHRNSSTAKTVETEDGEEDIDEYQRKRAAGSGESTPERSDFKRVKHDNHKTLHPVNLQNTGAASVDNDGLHNLTDISNDAEKLLMSVDDGSAAPSTLSVNMGVASHNVAAPTTVNAATITGSDVSNNVNSATINNPMEEGALPLSPTASSPGTTTPLAKTTKTINNNNNIADLIESKDSIISPEYLSDEIFSAINNNLPHAYFKNLLFRLVANMDRSELSDLGTLIKDNLKRDLITSLPFEISLKIFNYLQFEDIINSLGVSQNWNKIIRKSTSLWKKLLISENFVSPKGFNSLNLKLSQKYPKLSQQDRLRLSFLENIFILKNWYNPKFVPQRTTLRGHMTSVITCLQFEDNYVITGADDKMIRVYDSINKKFLLQLSGHDGGVWALKYAHGGILVSGSTDRTVRVWDIKKGCCTHVFKGHNSTVRCLDIVEYKNIKYIVTGSADNTLHVWKLPKESSVPDHGEEHDYPLVFHTPEENPYFVGVLRGHMASVRTVSGHGNIVVSGSYDNTLIVWDVAQMKCLYILSGHTDRIYSTIYDHERKRCISASMDTTIRIWDLENIWNNGECSYATNSASPCAKILGAMYTLQGHTALVGLLRLSDKFLVSAAADGSIRGWDANDYSRKFSYHHTNLSAITTFYVSDNILVSGSENQFNIYNLRSGKLVHANILKDADQIWSVNFKGKTLVAAVEKDGQSFLEILDFSKASKINYVSNPVNSSSSSLESISTSLGLTRTTIIP	no bind	–	–	dead	–	–	fully competent	–	–	–	–	–	–	abolished; also recorded: unable to bind	abolished; also recorded: unable
